Experiment: yeast display, Sf9 membrane polyspecificity reagent, FACS + sequencing; frameworks hold sequencing errors
Summary of the method: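 In a synthetic yeast display library (Saccharomyces cerevisiae BJ5465), nanobody expression was induced with galactose for 36–48 hours. FACS gates were set low and high (top ~1%) using anti-HA fluorescence for expression and streptavidin fluorescence for binding of the Sf9 membrane reagent. Each polyreactivity label is drawn from the gate of origin.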

Row | Sequence | polyreactivity (PSR sort gate)
1 | QVQHVESGGGLVQAGGSLRLSCAASGFTFNYYAMGWYRQAPGKERELVAAITSSGGSTYYADSVKGRFTISRDNAKNTVYLQMNSLKPEDTAVYYCNAAVYAHRYIDGFDYWGQGTQVTVSS | high polyreactivity
2 | QVQHVESGGGLVQAGGSLRLSCAASGFTFPSYAMGWYRQAPGKERELVAGISRGGTRTYYADSVKGRFTISRDNAKNTVYLQMYSLKPEDTAVYYCAATHGLRIRFPGDYWGQGTQVTVSS | high polyreactivity
3 | QVQHVESGGGLVQAGGSLRLSCAASGFTFRVYAMGWYRQARGKEMELVAAISRSGGSTYYADSVKRRFTISRDNEKNTVYLQMNSLKPEDTAVYYCGGGWKRGRYDYWGQGTQVTVSS | high polyreactivity
4 | QVQHVESGGGLVQAGGSLRLSCAASGFTFWYYAMGWYRRATGKERELIASISSIGGSTYYADSVKGRYTISRDNAKNTVYLQMNSLKAEDTAVYYCAARYKFLRGGVRRDYWGQGTQVTVSS | high polyreactivity
5 | QVQHVESGGGLVQAGGSLRLSCAASGFTFYSYAMGWYRQAPGKERELVASITSGGSTYYADSVKGRFTISRDNAKNTVYLQMNSLKPEDTAVYYCAAPAVKPRRSYYYWGQGTQVTVSS | high polyreactivity
6 | QVQHVESGGGLVQAGGSLRLSCAASGFTLFWNDMGWYRQAPGKERELVAAITSGDDTYADSVKGRFTISRDNAKNTVYLQMNSLKPEDTAVYYCNKDDPLRNVAQVILYEFYYWGQGTQVTVSS | low polyreactivity
7 | QVQHVESGGGLVQAGGSLRLSCAASGFTSSRNAMGWSRQAPGKERELVATISSGGDTYYADSVKGRFTISRDNAKNSVYLQMNSLKPEYTAVYYCNKDTLYAWGYDYWGQGTQVTVSS | low polyreactivity
8 | QVQHVESGGGLVQAGGSLRLSCAASGGIFYVNAMGWYRQEPGKERELVADITSDGVSKYYADSVKGRFTISRDNAKNTVYLQMNRLKPEDTAVYYCGGDNGGAGYYYGYVWYDYWGQGTQVTVSS | low polyreactivity
9 | QVQHVESGGGLVQAGGSLRLSCAASGGTFYSYAMGWYRQAPGKERELVAAISRRGGSTYYADSVKGRFTISRDNAKNTVYLQLNSLKPEDTAVYYCAAKGPSYGVTRMYYWGQGTQVTVSS | high polyreactivity
10 | QVQHVESGGGLVQAGGSLRLSCAASGIIFLFYAMGWYRQARGKERELVAAITGAGSTNYADSVKGRFTISRDNAKNTVYLQMNRLKPEDTAVYYCAARHYARYDYWGQGTQVTVSS | low polyreactivity
11 | QVQHVESGGGLVQAGGSLRLSCAASGITFRVNAMGWYRQAPGKERELVASISRSGGSTYYADSVKGRFTISRDNAKNTVYLQMNSLKPEVTAVYYCAAAQKVLFYGRWFDYWGQCTQVTVSS | low polyreactivity
12 | QVQHVESGGGLVQAGGSLRLSCAASGITLNSYAMGWYRQAPGTERELVAAISSDGTYYADSVKGRFTISRDNAKNTVYLQMNSLKPEDTAVYYCAAERNHGLVGSESVGRNDYWGQGTQVTVSS | low polyreactivity
13 | QVQHVESGGGLVQAGGSLRLSCAASGITYGRYTMGWYRQAPGKERELVAAITNGDITYYADSVKGRFTISRDNAKNTVYLQMNSLKQEDTAVYYCAADRYFWYDYWGQGTQVTVSS | high polyreactivity
14 | QVQHVESGGGLVQAGGSLRLSCAASGLIFTTYAMGWYRQAPGKERELVADINSDGSTYYADSVKGRFTISRDNAKNTVYLQMNSLKPEDTAVYYCAASSYYTITYKLIYWRNYDYWGHGTQVTVSS | low polyreactivity
15 | QVQHVESGGGLVQAGGSLRLSCAASGLTFHQYAMGWYRQAPGKERELVAAITGSGGSTYYADSVKGRVTISRDKAKNTVYLQMYSLKPEDTAVYYCAAKTYRRGGGYWGQGSQVTVSS | high polyreactivity
16 | QVQHVESGGGLVQAGGSLRLSCAASGLTFKANAMGWYRQAPGKERELVAAITWSGTSTYYADSVKGRFTISRDNAKNTVYLQMNRLKPEDTAVYYCNKPYDVWYHDYDYWGQGTQVTVSS | low polyreactivity
17 | QVQHVESGGGLVQAGGSLRLSCAASGLTSRYYAMGWYRQAPGKERELVAAISSRGGRTYYADSVKGPFTISRDNAKNTVYLQMNSLKPEDTAVYYCNAVRGYSGNLRDYWGQGTQVTVSS | high polyreactivity
18 | QVQHVESGGGLVQAGGSLRLSCAASGRIFGTNAMGWYRQAPGKERELVAAINGSDSSTYYADSVKGRFTISRDNAKNTVYLQMNSLKPEDTAVYYCNADWSGAPERSTDGYDYWGQGTQVTVSS | low polyreactivity
19 | QVQHVESGGGLVQAGGSLRLSCAASGRIFHGYAMGWYRQSPGKERELVAAITSRGGSTYYADSVKGRFTISRDNAKNTVYLQMNSLKPEDTAVYYCNAGRYLYAFDYWGQGTQVTVSS | low polyreactivity
20 | QVQHVESGGGLVQAGGSLRLSCAASGRIFPYKAMGWYRQAPGKERELVAAISKSGVRTYYADSVKGRFTISRDNAKNTVYLQMNSLKPEDTAVYYCARGGYPGSAEYDYWGQGTQVTVSS | high polyreactivity
21 | QVQHVESGGGLVQAGGSLRLSCAASGRIFPYYAMGWYRQAPGKERELVATITSGGSTYYADSVKGRFTISRDNAKNTVYLQMNSLKPEDTAVYYCAARYPSIYYYSYDYWGQGTQVTVSS | high polyreactivity

Row | Sequence | polyreactivity (PSR sort gate)
22 | QVQHVESGGGLVQAGGSLRLSCAASGRIFTFYTMGWYRQAPGKERELVAAINSGGSTYYADSVKGRFTISRDNAKNTVYLQMNSLIQEDTAVYYCNARVYPLWFRRGYDYWGQGTQVTVSS | high polyreactivity
23 | QVQHVESGGGLVQAGGSLRLSCAASGRIFTYYTMGWYRQAPGKERELVAAISWSGGRTYYADSVKGRFTISRDNAKNTVYLQMNSLKPEDTAVYYCARLQDSRESPWRGYYWGQGTQVTVSS | high polyreactivity
24 | QVQHVESGGGLVQAGGSLRLSCAASGRIIRGNVMGWYRQAPGKERELVATITSSARTYYADSVKGRFTISRDNAKNTVYLQMNSLKPEDTAVYYCANKQPRYRLRMNYWGQGTQVTVSS | high polyreactivity
25 | QVQHVESGGGLVQAGGSLRLSCAASGRISQIYAMGWYRQAPGKERELVARITSTDSTYYADSVKGRFTISRDNAKNTVYLQMNSLKPEDTAVYYCAASWWSPYDYWGQGTQVTVSS | low polyreactivity
26 | QVQHVESGGGLVQAGGSLRLSCAASGRTFAWYAMGRYRQAPGKERELVAAISSGGSTYYADSVKGRFTISRDNAKNTVYLQMNSLKPEDTAVYYCAAEWHYIYAYDYWGQGTQVTVSS | low polyreactivity
27 | QVQHVESGGGLVQAGGSLRLSCAASGRTFFANAMGWYRQAPGKERELVAAITSNTGSTYYADSVKGRFTISRDNAKNTVYLQMNSLKPEDTAVYYCAARGSPRKWTFHYYYWGQGTQVTVSS | high polyreactivity
28 | QVQHVESGGGLVQAGGSLRLSCAASGRTFFYNTMGWYRQAPGKERELVARITRGGSTYYADSVKGRFTISRDNAKNTVYLQMNSLKPEDTAVYYCAAGYWRGYLLYGFDYWGQGTQVTVSS | high polyreactivity
29 | QVQHVESGGGLVQAGGSLRLSCAASGRTFLKNAMGWYRHAPVKERELVAAITSGGSTNYADSVKGRFTISRDNAKNTVYIQMNSLKPEDTAVYYCNAPSYWYYPVLGSFLTFDYWGQGTQVTVSS | low polyreactivity
30 | QVQHVESGGGLVQAGGSLRLSCAASGRTFRKNAMGWYRQAPGKERELVAAITGSSGTTYYADSVKGRFTISRDNAKNTVYLQMNSLKPEDTAVYYCATTVGDPGRRYYYWGQGTQVTVSS | high polyreactivity
31 | QVQHVESGGGLVQAGGSLRLSCAASGRTFRNNAMGWYRQAPGKERELVAAITSGGSTYYADSVKGRFTISRDNAKNTVYLQMNSLKPEDTAVYYCAAVPEYYEYSPYDYWGQGTQVTVSS | low polyreactivity
32 | QVQHVESGGGLVQAGGSLRLSCAASGRTFRRYAMGWYRQAPGKERELVAVITTGSTYYADSVKGRFTISRDNAKNTVYLQMNSLKPEDTALYYCAADFYRATARYEMDYWGQGTQVTVSS | high polyreactivity
33 | QVQHVESGGGLVQAGGSLRLSCAASGRTFSYYTMGWYRQAPGKERELVARISNRGTNTYYADSVKGRFTISRDNAKYTVYLQMNSLKPEDYAVYYCAKYYYTSIVGYDSWGQGTQVTVSS | low polyreactivity
34 | QVQHVESGGGLVQAGGSLRLSCAASGRTFVTYAMGWYRQAPGKERELVAAISKRGSRTYYADSVKGRFTISRDNAKNTVYLQMNSLKPEDTAVYYCNADPYRTSYDYWGQGTQVTVSS | high polyreactivity
35 | QVQHVESGGGLVQAGGSLRLSCAASGRTFWINAMGWYRQARGKERELVAAITRGGRTYADSVKGRFTISRDNAKNSVYLQMNSLKPEDTAVYFCAADSYRLSGHHGYDFWGQGTQLTVSS | high polyreactivity
36 | QVQHVESGGGLVQAGGSLRLSCAASGRTFYSYAMGWYRQAPGKERELVAAINSGGTTYYADSVKGRFTISRDNAKNTVYLEINSLKPEDTAVYYCAAVSYLFLYQGYPIAYPMYYWGQGTQVTVSS | low polyreactivity
37 | QVQHVESGGGLVQAGGSLRLSCAASGRTFYSYAMGWYRQAPGKERELVAAISGRGGRTYYADSVKGRFTISRDNAKNTVYLQMNSLKPEDSAVYFCAKGGYAIRYYGFDYWGQGTQVTVSS | high polyreactivity
38 | QVQHVESGGGLVQAGGSLRLSCAASGRTLYRYAMGWSRQAPRKERELVAAIRSGGRTNYADSVKGRFTISRDNAKNTVYLQMNSLKPEDTAVYYCAARTLRYPSTFEYWGQGTQVTVSS | high polyreactivity
39 | QVQHVESGGGLVQAGGSLRLSCAASGSIFGRYAMGWYRPAPGKERELVAAITRSGVSTYYADSVTGRFTSARDNAKNTVDLQMNSLKPEDTAVYYCNAYYPIRSSPYGYYYWGQGTQVTVSS | high polyreactivity
40 | QVQHVESGGGLVQAGGSLRLSCAASGSIFLIYAMGWYRPAPGKERELVAAITGGGTTNYADSVKGRFTISRDNAKHTVYFQMNSLKPEDTAVYYCNTLYLVYLYWTSPTPSDLFDYWGQGTQVTVSS | low polyreactivity
41 | QVQHVESGGGLVQAGGSLRLSCAASGSIFNYYAMGWYRQAPGKERELVAAISKTGGSTYYADSVKGRFTISRDNAKNTVYLQMNSLKPEDTAVYYCNAVYASVSPTPYGYWGQGTQVTVSS | high polyreactivity
